In patent US6342201B1, “Complex compounds for diagnosis of vascular diseases” (Institut for Diagnostikforschung GmbH an der Freien …, priority 1994, dated 2002):
“Also recorded” adds a separate entry of the source.

Columns and labels:
[1] = system: plaque as well as non-plaque regions of the aorta; assay: Quantitative autoradiography and Sudan-III-dyeing of the removed aorta of WHHL-rabbits after i.v. application; set-up: species or system WHHL-rabbit; details: in vivo
Method: 74 MBq (2 mCi) of the respective compound according to the invention was applied via an ear vein in a WHHL-rabbit. 5 h p.i. the rabbit was killed and both a quantitative autoradiography and a Sudan-III-dyeing of the removed aorta were performed. The so-determined accumulation of the respective compounds according to the invention in the different tissues is listed in Table 1.
2 mCi (1 ml) of the analog to b) labelled […]was applied to a narcotized WHHL-rabbit (Rompun/Ketavet 1:2) via an ear vein. WHHL-rabbits reveal due a missing or defect LDL receptor high LDL levels in blood and therefore show spontaneous arteriosclerotic vascular changes. During the experimental time span of 5 h after application, static photographs with various exposure times and positions were taken with a gamma camera (Elcint SP4 HR). 5 h after application the rabbit was killed and both an autoradiography and a Sudan III dyeing of the aorta were performed. The arteriosclerotic plagues in the region of the aortic arch of the WHHL-rabbits could be depicted with 10 min p.i. in vivo. […] The enrichment factor between the normal and arteriosclerotic wall regions was between 6 and 9, depending on the plaque formation (Sudan III dyeing).

[2] = system: denuded (arteriosclerotic) right a. carotis; assay: Scintigram and autoradiogram of a New Zealand rabbit with right a. carotis denuded by Fogarty-catheter; assay type: in vivo; details: right a. carotis denuded four weeks earlier, 0.5 h after i.v. application of 74 MBq
Source text: (§1) The order of the dissected tissues for each B1 and B2 from left to right: thoracic aorta, right denuded a. carotis and left untreated a. carotis.

[3] = system: arteriosclerotic plaques (aortic arch, a. carotis, abdominal aorta); assay: In vivo gamma camera scintigraphy of WHHL-rabbits; set-up: species or system WHHL-rabbit
Method: as §1
2 mCi (1 ml) of the analog to b) labelled […]was applied to a narcotized WHHL-rabbit (Rompun/Ketavet 1:2) via an ear vein. WHHL-rabbits reveal due a missing or defect LDL receptor high LDL levels in blood and therefore show spontaneous arteriosclerotic vascular changes. During the experimental time span of 5 h after application, static photographs with various exposure times and positions were taken with a gamma camera (Elcint SP4 HR). 5 h after application the rabbit was killed and both an autoradiography and a Sudan III dyeing of the aorta were performed.

Substance | Enrichment factor Plaque / Non-plaque [1] | other results
Tc-99m-Complex of N-(4-hydroxycarboxy-1-oxo-3-thia-but-1-yl)-Cys-(D-Trp)-Leu-Asp-Ile-Ile-Trp [Example 5 c] | 9 | 
^99mTc-Complex of Asp-Gly-Gly-Cys-Gly-Cys-D-Trp-Leu-Asp-Ile-Ile-Trp [Example 2 c] |  | in vivo detection of the arteriosclerotic right a. carotis in anterior scintigram [2]: could be detected in vivo
^99mTc-Complex of Asp-Gly-Gly-Cys-Gly-Cys-His-Leu-Asp-Ile-Ile-Trp [Example 1 c] |  | time p.i. at which arteriosclerotic plaques in the region of the aortic arch could be depicted in vivo ([3]; WHHL-rabbit, 2 mCi via ear vein, gamma camera): 10 min
Tc-99m-Complex of N-(4-hydroxycarboxy-1-oxo-3-thia-but-1-yl)-Cys-Phe-(D-Trp)-Leu-Asp-Ile-Ile-Trp [Example 4 c] | 14 | 
Tc-99m-Complex of Asp-Gly-Gly-Cys-Gly-Cys-Phe-(D-Trp)-Leu-Asp-Ile-Ile-Trp [Example 3 c] |  | enrichment activity in vivo in left lateral scintigram ([3]; WHHL-rabbit versus New Zealand control rabbit, 0.5 h after i.v. application of 74 MBq, aortic arch, left a. carotis, abdominal aorta): observable enrichment activity in vivo; also recorded: enrichment activity is visible in vivo
Tc-99m-Complex of N-(4-hydroxycarboxy-1-oxo-3-thia-but-1-yl)-Cys-His-Leu-Asp-Ile-Ile-Trp [Example 6 c] | 5 | 
